{"source": "patent US20260242417A1", "target": "Patched"}
{"substance": "Recombinant mouse Sonic HedgeHog (mShh) (from UniProt Q62226) (ligand)", "values": [{"measurement": "Mean luminescence intensity (Gli-luciferase reporter, NIH3T3 cells) (luminescence intensity)", "value": 6460}]}
